In this series the target is T1, D-proline reductase PrdA protein derived from Peptoclostridium difficile 630, with 6X histidine tags at both termini (H6-prdA-H6).
T1 chain: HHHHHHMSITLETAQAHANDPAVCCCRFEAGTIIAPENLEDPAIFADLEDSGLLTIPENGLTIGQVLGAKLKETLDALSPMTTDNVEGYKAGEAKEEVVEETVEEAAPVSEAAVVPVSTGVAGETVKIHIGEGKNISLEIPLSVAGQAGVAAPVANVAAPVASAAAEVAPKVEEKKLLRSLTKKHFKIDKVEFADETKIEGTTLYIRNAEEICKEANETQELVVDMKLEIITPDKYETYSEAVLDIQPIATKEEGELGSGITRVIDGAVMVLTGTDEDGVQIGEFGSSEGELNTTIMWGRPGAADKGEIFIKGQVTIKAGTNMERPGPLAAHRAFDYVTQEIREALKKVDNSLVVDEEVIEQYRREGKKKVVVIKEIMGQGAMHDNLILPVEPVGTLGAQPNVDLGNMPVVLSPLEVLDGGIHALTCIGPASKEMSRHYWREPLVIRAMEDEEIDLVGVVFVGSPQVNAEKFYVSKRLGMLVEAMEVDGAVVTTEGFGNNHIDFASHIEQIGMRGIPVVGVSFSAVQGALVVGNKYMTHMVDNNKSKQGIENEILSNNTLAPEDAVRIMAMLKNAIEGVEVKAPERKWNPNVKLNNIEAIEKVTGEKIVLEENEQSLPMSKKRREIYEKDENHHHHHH

The values below come from patent publication US20210317419.

B1: D-proline reductase PrdB protein derived from Peptoclostridium difficile 630, with a 6X histidine tag at the carboxyl terminus (prdB-H6) (protein)
chain: MSLTTVQGLQSEIFVPITPPPVWTPVTKELKDMTIALATAAGVHLKSDKRFNLAGDTTFRAIPNTATVDEMMVSHGGYDNGDVNKDINCMFPIDRLHELAAEGFIKGVAPMHYAFMGGGGNQHVFTEETGPAIAAKLKEEGVDGVVMTAGGTCHRTAVIVQRAIEEAGIPTIIIAALPPVVRQNGTPRAVAPLVPMGANAGEPHNIEMQTHILRDTLEQLVAIPSAGKIVPLPYEYKAHVHHHHHH
Consider B1, for which the “self-cleavage of PrdA protein (Western blot of lysates of co-expressing E. coli)” value is “PrdH protein and PrdB protein must exist at the same time to induce self-cleavage of PrdA protein”.
